The subject of series [1] is T1, CGPLGLAGGERDGC (MMP9 substrate) peptide cross-linker as presented in MMP9-NANs.
T1 sequence: CGPLGLAGGERDGC

The subject of series [2] is T2, CGFLGC (cathepsin B substrate) peptide cross-linker as presented in CathB-NANs.
T2 sequence: CGFLGC

We go through four substances from patent publication US20210038528.

With cathepsin B, in series [1], the “dye release from pep-NAN (fluorescence assay)” value is reported as “Cathepsin B activity on MMP9-NANs was also evaluated, in which no fluorescence change was observed”. Moreover, in series [2], the “dye release from pep-NAN (fluorescence assay)” value was “MMP9-NANs and CathB-NANs released their dye when treated with their intended enzyme targets, MMP9 and cathepsin B, respectively”; the “time to comparable fluorescence change, relative to MMP9-NAN degradation by MMP9” value is on record as “it takes ˜20× as long to see comparable fluorescence changes in solution when cathepsin B is added to a solution of CathB-NANs as compared to MMP9-NAN degradation by MMP9”.

Consider MMP2, for which the “dye release from pep-NAN at pH 7 (fluorescence assay)” value in series [1] is “The results of these experiments indicated that the MMP9-NAN is specific to the MMP9 enzyme”. As for “MMP9 enzyme (matrix metalloproteinase 9)”, in series [1], the “dye release from pep-NAN (fluorescence assay)” value was “MMP9-NANs and CathB-NANs released their dye when treated with their intended enzyme targets, MMP9 and cathepsin B, respectively”; the “dye release from pep-NAN at pH 5 (fluorescence monitoring)” value was “Exposure of MMP9-NANs to cathepsin B and MMP9 at pH 5 resulted in no observable change in fluorescence”. Regarding MMP1, the “dye release from pep-NAN at pH 7 (fluorescence assay)” value in series [1] is “The results of these experiments indicated that the MMP9-NAN is specific to the MMP9 enzyme”.
